According to publication PMC9243137, “Structural and electrophysiological basis for the modulation of KCNQ1 channel currents by ML277” (Nature Communications, 2022):

Columns and labels:
[1] = biological target: the molecule itself; assay: cryo-EM structure; xKCNQ1(67-610) co-expressed with CaM in tsA201 cells, complex purified in DDM/CHS, 0.5 mM CaCl2; grids without and with 100 uM ML277; C4 symmetry imposed
Calmodulin = biological target: T1, Calmodulin (UniProt P0DP23 1-149); assay: as above; conditions: both partners purified
T1 construct: Calmodulin; DNA a gift of the Wayne Chen lab; model built from residues 10 to 146; Sample held 0.5 mM CaCl2; also called CaM; Ca2+/CaM; source: tsA201 cells, co-transfected with xKCNQ1 (pcDNA3), co-purified with xKCNQ1

binding result (Calmodulin): binds
B1: Xenopus laevis KCNQ1, residues 67-610 (truncated, biochemically stable form) (domain or fragment, UniProt P70057 67-610, looked up)
chain: ATDPPRPTINLDPRVSIYSGRRPLLSRTNIQGRVYNFLERPTGWKCFVYHFTVFLIVLICLIFSVLSTIQQYNNLATETLFWMEIVLVVFFGAEYVVRLWSAGCRSKYVGVWGRLRFARKPISVIDLIVVVASVIVLCVGSNGQVFATSAIRGIRFLQILRMLHVDRQGGTWRLLGSVVFIHRQELITTLYIGFLGLIFSSYFVYLAEKDAIDSSGEYQFGSYADALWWGVVTVTTIGYGDKVPQTWIGKTIASCFSVFAISFFALPAGILGSGFALKVQQKQRQKHFNRQIPAAASLIQTAWRCYAAENPDSATWKIYIRKQSRNHHLMSPSPKPKKSAMVKKKKIRTERDEGSTDKMLNIPHITYDHVADDRKNDGYSVESYENTVRKPFGFLDPSTGPFIRTSSFTDDLDMEGDTLLTPITHISELKEHHRAAIKVIRRMQYFVAKKKFQQARKPYDVRDVIEQYSQGHLNLMVRIKELQRRLDQSLGKPSLFLSVSDKVKDKGINTIGSRLNRVEDKVTQMDHKLNLITDMLHHLLTNQQ
notes: KCNQ1 (Kv7.1) of Xenopus laevis, NP_001116347.1, residues 67-610; N- and C-termini truncated as in Sun and MacKinnon 2017; model built from residues 95 to 556 (67-94, 206-214, 385-496 disordered); Human KCNQ1 numbering is +10 against xKCNQ1; A preScission protease site stood between the channel and the C-terminal GFP-6xHis tag; residues of the site may be left after cleavage; Four subunits (C4 …)
binding result [1]: binds
